In one assay the test system is diabetic db/db mice. As to the kind of experiment: overnight fast and IPGTT in diabetic mice after SC administration. The format is in vivo. To be noted: SC at 9 pm, fasted overnight; GLP-1-Tf 1 or 10 mg. The procedure: A group of diabetic mice were given Tf or GLP-1-Tf via SC administration at 9 pm, fasted overnight and an IPGTT performed the next morning. The fasted Tf-treated animals had lower fasting blood glucose than ad libitum fed animals (238±39 versus 358±23 mg/dl; compare 0 time/fasted animals of FIG. 10c with 0 time/fed animals of FIG. 10a), and additionally, the animals given 1 or […] had lower fasting blood glucose (132±27 mg/dl) than those given Tf alone.

In the next assay the test system is db/db mice. Kind of assay: β-cell proliferation (BrdU) and β-cell mass in db/db mice. In kind it is in vivo. Conditions: 10 mg/kg IP, third day. The procedure: db/db mice, 6 per time point, received one IP injection of Tf (10 mg/kg) or GLP-1-Tf (10 mg/kg) and were sacrificed 1, 2 and 3 days later for measurement of β-cell proliferation and 3, 5, 8 and 10 days later for measurement of islet mass. Sixty mg/kg 5-bromo-2-deoxyuridine (BrdU, Sigma) was injected IP 6 hours before sacrifice. BrdU is a thymidine analog that is incorporated during S-phase of cell mitosis. Pancreata were removed, fixed overnight in 4% buffered formalin, processed for embedding in paraffin and histological sections (4 μm) mounted on poly-1-lysine-coated glass slides. BrdU was detected with a BrdU antibody (Sigma, 1:500 and also confirmed with Zymed antibody, 1:250) and BrdU staining kit (Zymed Laboratories Inc). Five to six hundred islets from each condition were then visualized and the number of islets that contained BrdU+ cells as well as the percent BrdU+ nuclei per total number of islet cells was quantified. For insulin staining and determination of β-cell mass histological sections were treated with a guinea-pig insulin antibody (Linco). […] The total pancreatic area and β-cell positive area for every image were quantified using MetaMorph 4.6.3 software (Universal Imaging Inc., West Chester).

B1: Tf: transferrin with the two N-linked glycosylation sites eliminated, expressed in S. cerevisiae; control protein (protein)
chain: VPDKTVRWCAVSEHEATKCQSFRDHMKSVIPSDGPSVACVKKASYLDCIRAIAANEADAVTLDAGLVYDAYLAPNNLKPVVAEFYGSKEDPQTFYYAVAVVKKDSGFQMNQLRGKKSCHTGLGRSAGWNIPIGLLYCDLPEPRKPLEKAVANFFSGSCAPCADGTDFPQLCQLCPGCGCSTLNQYFGYSGAFKCLKDGAGDVAFVKHSTIFENLANKADRDQYELLCLDNTRKPVDEYKDCHLAQVPSHTVVARSMGGKEDLIWELLNQAQEHFGKDKSKEFQLFSSPHGKDLLFKDSAHGFLKVPPRMDAKMYLGYEYVTAIRNLREGTCPEAPTDECKPVKWCALSHHERLKCDEWSVNSVGKIECVSAETTEDCIAKIMNGEADAMSLDGGFVYIAGKCGLVPVLAENYNKADNCEDTPEAGYFAVAVVKKSASDLTWDNLKGKKSCHTAVGRTAGWNIPMGLLYNKINHCRFDEFFSEGCAPGSKKDSSLCKLCMGSGLNLCEPNNKEGYYGYTGAFRCLVEKGDVAFVKHQTVPQNTGGKNPDPWAKNLNEKDYELLCLDGTRKPVEEYANCHLARAPNHAVVTRKDKEACVHKILRQQQHLFGSNVADCSGNFCLFRSETKDLLFRDDTVCLAKLHDRNTYEKYLGEEYVKAVGNLRKCSTSSLLEACTFRRP
Regarding B1, the fasting blood glucose in the assay on diabetic db/db mice worked out at 238 ± 39 mg/dL. The “islets with 1 or more BRDU+ nuclei” value in the assay on db/db mice is 35%.

These data come from patent US20060205037A1, “Modified transferrin fusion proteins” (priority 2003, published 2006).
